Laboratory results from PMC7058448.

Biological target: gp120-gp41 protomer of cleaved gp160, HIV-1 isolate 92UG037.8 (HIV-1 isolate 92UG037.8 (clade A))
Experiment: cryo-EM structure

Substance: gp120-gp41 protomer of cleaved gp160, HIV-1 isolate 92UG037.8 (complex)
- stoichiometry N: 3
